In article PMC8523820:

Assays:
[1] = molecular target: eGFP-ASIC1a (rat ASIC1a subunit fused to eGFP) (rat) (UniProt P55926)
[2] = molecular target: human ASIC1a channel (human (endogenous in HEK293)) (UniProt P78348)
[3] = molecular target: human ASIC1a channel (human (endogenous in HEK293)) (UniProt P78348); remark: listed apart in the source
[4] = molecular target: mouse ASIC1a channel (mouse (endogenous in C57BL/6 striatal neurons)) (UniProt Q6NXK8)
[5] = molecular target: mouse ASIC1a channel (mouse (endogenous in C57BL/6 striatal neurons)) (UniProt Q6NXK8); remark: listed apart in the source
[6] = molecular target: eGFP-ASIC1a (rat ASIC1a subunit fused to eGFP) (rat) (UniProt P55926); remark: listed apart in the source

UniProt P78348, sequence (P78348 whole entry): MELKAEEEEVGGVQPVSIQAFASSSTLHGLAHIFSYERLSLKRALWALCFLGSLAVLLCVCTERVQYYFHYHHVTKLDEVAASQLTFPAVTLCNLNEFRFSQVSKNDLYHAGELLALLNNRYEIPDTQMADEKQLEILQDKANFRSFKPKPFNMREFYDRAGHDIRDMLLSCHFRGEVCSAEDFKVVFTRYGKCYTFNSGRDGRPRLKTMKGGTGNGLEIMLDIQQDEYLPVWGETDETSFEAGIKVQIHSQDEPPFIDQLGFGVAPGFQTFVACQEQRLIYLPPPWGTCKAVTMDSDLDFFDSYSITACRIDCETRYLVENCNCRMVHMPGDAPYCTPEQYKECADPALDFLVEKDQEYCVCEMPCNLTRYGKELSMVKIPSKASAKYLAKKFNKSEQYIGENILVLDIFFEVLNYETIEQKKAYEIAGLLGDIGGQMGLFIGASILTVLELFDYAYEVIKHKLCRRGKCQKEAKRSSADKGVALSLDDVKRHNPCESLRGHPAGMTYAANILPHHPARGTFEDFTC
UniProt P55926, sequence (P55926 whole entry, the tested form may be a part): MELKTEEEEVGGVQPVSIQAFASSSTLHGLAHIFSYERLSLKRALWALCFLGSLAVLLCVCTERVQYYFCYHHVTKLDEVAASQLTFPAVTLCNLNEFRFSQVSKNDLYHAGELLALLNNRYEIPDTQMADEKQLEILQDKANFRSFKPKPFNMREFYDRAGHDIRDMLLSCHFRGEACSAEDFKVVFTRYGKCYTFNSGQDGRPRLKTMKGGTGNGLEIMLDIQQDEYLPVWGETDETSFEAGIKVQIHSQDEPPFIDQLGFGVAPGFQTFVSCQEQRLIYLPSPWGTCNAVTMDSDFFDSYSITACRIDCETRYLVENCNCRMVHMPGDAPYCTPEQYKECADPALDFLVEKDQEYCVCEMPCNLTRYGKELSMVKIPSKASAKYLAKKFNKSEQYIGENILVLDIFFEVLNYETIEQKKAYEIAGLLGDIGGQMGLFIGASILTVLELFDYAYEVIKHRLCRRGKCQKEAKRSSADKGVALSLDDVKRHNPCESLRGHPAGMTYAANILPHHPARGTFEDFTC
UniProt Q6NXK8, sequence (Q6NXK8 whole entry, the tested form may be a part): as the sequence (P55926 whole entry, the tested form may be a part) above, with S476N counted along it

Work on MitTx (complex) yielded a pERK/tERK relative to untreated eASICx1 cells, Western blot of HEK cells transfected with eGFP-ASIC1a (x1) and treated with MitTx (fold of eASICx1 levels) [1] of 3.42, a pERK/tERK relative to untreated eASICx1 cells, Western blot of HEK cells transfected with eGFP-ASIC1a (x3) and treated with MitTx (fold of eASICx1 levels) [1] of 9.96 and a pERK/tERK relative to control, Western blot of lysates of HEK cells treated with 20 nM MitTx for 2 to 10 min (7.98 at 2 min, 10.90 at 10 min) (fold of control) [2] of 10.9. For the same substance, the pCaMKII/Tub relative to control, HEK cells pre-incubated with 20 nM Pctx-1 for 30 min, then MitTx for 2 min (fold of control) [3] was 1.17, the pCaMKII/Tub relative to control, Western blot of lysates of HEK cells treated with 20 nM MitTx for 2 to 10 min (8.88 at 2 min, 10.76 at 10 min) (fold of control) [3] was 10.8 and the pERK/tERK relative to control, HEK cells pre-incubated with 20 nM Pctx-1 for 30 min, then MitTx for 2 to 10 min (1.18 at 2 min, 1.42 at 10 min) (fold of control) [3] was 1.42. It also gave a pCaMKII/Tub relative to control, Western blot of lysates of mouse striatal neurons treated with 20 nM MitTx for 2 min (fold of control) [4] of 6.37, a pERK/tERK relative to control, Western blot of lysates of mouse striatal neurons treated with 20 nM MitTx for 2 min (fold of control) [5] of 5.39 and a pERK/tERK relative to untreated eASICx1 cells, HEK cells transfected with eGFP-ASIC1a (x1), pre-incubated with Pctx-1, then MitTx (fold of eASICx1 levels) [6] of 1.1.
